Assay [1] deals with β-galactosidase enzyme donor (ED)-tagged human BTLA on Jurkat cells (human, UniProt Q7Z6A9 31-289). The assay can be described thus: cell-based or functional assay.
Assay [2] has as its target T1, human BTLA on cells (stably transfected 293c18 cells; human peripheral blood T and B cells) (human, UniProt Q7Z6A9 31-289).
T1 construct: whole, on cells; the cells are named under assay; also called cell surface BTLA; full-length human BTLA
Kind of assay: flow cytometry, DyLight 650-labeled 6G3 IgG4 on human peripheral blood CD8+ T cells. As to the method:
(§1) PBMCs were washed and incubated at 2×10⁷ cells/ml in FACS buffer (PBS, 1% BSA, 0.02% sodium azide) with Human BD Fc Block (2.5 μg/1×10⁶ cells, BD Biosciences) and LIVE/DEAD® Fixable Yellow Dead Cell Stain (30 μl, ThermoFisher Scientific) for 10 minutes on ice. Cells were washed once in FACS buffer, resuspended in FACS buffer at 1×10⁷ cells/ml and the following phenotyping antibodies added: Alexa Fluor 488-anti-human CD3E clone SK7, Brilliant Violet 421-anti-human CD4 clone OKT4, Brilliant Violet 785-anti-human CD8 clone SK1, and Brilliant Violet 570-anti-human CD20 clone 2H7 (50 μl each; all from BioLegend, Inc.). […] Samples were washed twice in FACS buffer, resuspended in 150 μl/well FACS buffer, and analyzed for fluorescence on a NovoCyte Flow Cytometer (ACEA Biosciences, Inc.). Data were analyzed using NovoExpress Software (ACEA Biosciences, Inc.). Median fluorescence intensities of anti-BTLA or isotype staining on gated CD4⁺ T cells (FIG. 4), CD8⁺ T cells (FIG. 4), or CD20⁺ B cells (FIG. 4) were graphed and curves fit with log(agonist) vs. response (three parameters) least squares fit for EC₅₀ calculation in GraphPad Prism (GraphPad Software, Inc.).
Background: In flow cytometry, cells or beads pass a laser one at a time.

Assay [3] addresses T2, human BTLA ECD-his (monomeric human BTLA-his) (human, UniProt Q7Z6A9 31-157).
T2 construct: extracellular domain; also called human BTLA extracellular domain
T2 sequence (looked up): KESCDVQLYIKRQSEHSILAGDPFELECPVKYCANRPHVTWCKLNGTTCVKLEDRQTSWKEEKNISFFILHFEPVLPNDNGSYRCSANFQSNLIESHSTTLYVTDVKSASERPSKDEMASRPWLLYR
Kind of assay: Kinetic Exclusion Assay (KinExA 3000), solution phase, 6G3 IgG4 APE10840.04 at 100 pM, human BTLA ECD-his titrated. As to the method: Solution-based affinity measurements of 6G3 IgG4 (APE10840.04 (H Chain SEQ ID NO: 144, L Chain SEQ ID NO: 174)) binding to BTLA were determined on a KinExA 3000 (Sapidyne Instruments). Azlactone beads (ThermoFisher Scientific) were coated with human BTLA ECD-his (30 μg/ml) or cynomolgus monkey BTLA ECD-his (20 μg/ml) in 50 mM Na2CO3 for 2 hours at room temperature and blocked with 10 mg/ml BSA. 6G3 IgG4 APE10840.04 concentration was kept constant at 100 pM for binding in both human and cynomolgus monkey BTLA experiments. Human or cynomolgus monkey BTLA ECD-his was added at 25° C. in 2.5-fold dilutions from 1000 nM to 68 fM. Sample sets were equilibrated at 4° C. for 72 hours and brought to room temperature for 6 hours before capturing free antibody with BTLA-coupled Azlactone beads. […] Maximum and background signals were determined on samples with 6G3 only and buffer only, respectively. Data were analyzed using KinExA Pro Software 3.2.6.
On the technique in general: In KinExA the mixture passes briefly over coated beads that capture the unbound partner.

Assay [4] has as its target T1, human BTLA on cells (stably transfected …). The assay can be described thus: flow cytometry (MFI DyL650) on gated CD20+ B cells of human PBMC, DyLight 650-labelled antibody, three-parameter fit [right panel (Naive B cells]. As to the method:
as §1, with “Human peripheral blood mononuclear cells (PBMCs) were isolated by Histopaque (Sigma-Aldrich) density-gradient centrifugation of normal donor blood obtained from the San Diego Blood Bank (San Diego, CA). PBMCs” for “PBMCs”

B1: 6G3 IgG4 anti-BTLA antibody (APE10840 / APE12839 / APE13308) (antibody, V domains shown)
VH: QVQLVQSGAEVKKPGSSVKVSCKASGYVFSTSWMNWVRQAPGQGLEWMGRIYPGDADTNYVGKFKGRVTITADKSTTTAYMELSSLRSEDTAVYFCAKSGTFNFGNYRWYFDVWGKGTTVTVSS
VL: AIQLTQSPSSLSASVGDRVTITCRVSENIYSHLAWYQQKPGKAPKLLIYAATNLALGVPSRFSGSGSGTDYTLTISSLQPEDFATYYCQLFWGPPLTFGGGTKVEIKR
notes: Humanized antibody from a mouse hybridoma, tested as human IgG4 (detected with anti-human kappa); Some assays used labelled lots (DyLight 650, AF647, biotin, DyL488); also called 6G3 antibody; APE10840.03
Regarding B1, in assay [1], the “EC50, SHP2 recruitment PathHunter Jurkat BTLA signaling assay with U-2 OS hFcγRIa cells” value came out at 9.3 ng/mL; the “EC50, SHP2 recruitment PathHunter Jurkat BTLA signaling assay, soluble antibody” value stood at 125 ng/mL; the “fold increase of agonist potency with cell-associated FcγRIa against the assay without FcγRIa” value is ~13 fold. In assay [2], the EC50 was ~3.2 nM. The Kd in assay [3] was ~0.41 nM. Besides, in assay [4], the EC50 came out at 0.54 nM.

By EC50 is commonly meant the concentration giving half of the maximal effect. In general, Kd refers to the free concentration of one partner at which half of the binding sites on the other are occupied at equilibrium, for simple one-to-one binding. Low readings indicate tighter binding, high ones weaker binding.

The values are drawn from patent US20230391872A1 (ANAPTYSBIO, published 2023).
